Experimental data: patent US20180237497A1 (CANCER RESEARCH TECHNOLOGY, published 2018)

Assays:
[1] = molecular target: T1, human IGF2^1-67 (mature insulin-like growth factor 2) (human, UniProt P01344 25-91, biotinylated (site not stated) where immobilised on the chip (Tables 1-4)); test: SPR steady state, biotin-IGF2 on chip, pH 7.4
T1 construct: mature; also called mature IGF2; biotinylated IGF2
Summary of the method: (§1)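 Biotinylated IGF2 captured on streptavidin chip; recombinant M6P/IGF2R domain 11 mutants (E. coli or P. pastoris) injected at 25° C in HBS-EP, pH 7.4, 40 μL min⁻¹. Kinetics fitted to 1:1 model; steady-state KD from 5 s response averages before injection end; 2-5 repeats on two chips.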

[2] = molecular target: T1, human IGF2^1-67 (mature insulin-like …); test: SPR kinetic, biotin-IGF2 on chip, pH 7.4
Summary of the method: as §1

[3] = molecular target: T1, human IGF2^1-67 (mature insulin-like …); test: SPR
Text: Surface plasmon resonance (SPR) binding analysis of recombinant M6P/IGF2R domain 11 mutants interaction with IGF2. Kon indicates association (on) rate; koff, dissociation (off) rate; RU, response units. Binding to IGF2 assessed with BIAcore T200 using purified biotinylated IGF2 and IGF1 on a streptavidin biosensor chip. Recombinant proteins were expressed either in E. coli and/or P. pastoris. All the mutants in the FG and CD loops are on the domain 11^AB5 background for the AB loop unless otherwise stated. All experiments were carried out at 25° C. in HBS-EP buffer (pH 7.4), were repeated 2-5 times on two independent BIAcore chips. nd=not determined. Data for KD expressed as mean of each experiment, and means of kon and koff are shown.
(§2) Final kinetic analysis of mutants by SPR was conducted using a Biacore T200 biosensor at 25° C. in either HBS-EP (10 mM HEPES pH 7.4, 150 mM NaCl, 3 mM EDTA, and 0.005% (v/v) surfactant P20) or MES-EP (20 mM MES pH 6.5, 150 mM NaCl, 3 mM EDTA, and 0.005% (v/v) surfactant P20) at a flow-rate of 40 μL min⁻¹. […] For the analysis of the Fc-domain 11^AB5 interaction, approximately 50 RU of a biotinylated IGF2:biotinylated ubiquitin mixture (1:8 proportion) was immobilized on the CM5-streptavidin chip. This interaction was also analysed by immobilizing the Fc-domain 11^AB5 and Fc-domain 11^AB5-RHH (or Fc-domain 11^I1572A as control) by Human Antibody Capture (monoclonal mouse anti-human IgG antibody immobilised on a CM5 chip by amine coupling, GE Healthcare) with and without human IgG1 Fc fragment (Bethyl Laboratories, UK) in the control flow cell. […] T200 BiaEvaluation software (GE Healthcare) was used to fit the resulting curves according to a 1:1 binding model.

[4] = molecular target: T1, human IGF2^1-67 (mature insulin-like …); test: SPR kinetic, biotin-IGF2 on chip, pH 7.4; remark: listed apart in the source
Summary of the method: (§3)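 Biacore SPR at 25 °C in HBS-EP pH 7.4 or MES-EP pH 6.5, flow 40 μL/min; ~50 RU biotin-IGF2:biotin-ubiquitin (1:8) on streptavidin chip, or Fc-domain 11 captured via anti-human IgG. Kinetics fitted to 1:1 model; steady-state affinity from response averaged 5 s before injection end.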

[5] = molecular target: T1, human IGF2^1-67 (mature insulin-like …); test: SPR (Biacore T200, 25 °C, HBS-EP pH 7.4); ΔΔG° = RT ln(KD mutant / KD domain 11^AB3); box AB
Procedure: (§4) Boxes show the change in the binding free energy contribution, ΔΔGº, for the indicated mutants. The loop/s that contains the mutation/s is indicated in each box. The ΔΔGº values were calculated as ΔΔGº=ΔGº domain 11^mutant−ΔGº domain 11^AB3=RTln(KD domain 11^mutant/KD domain 11^AB3). Additive and non-additive contributions of single point mutations are shown when calculated with a box solid line and dashed line, respectively.
(§5) Final kinetic analysis of mutants by SPR was conducted using a Biacore T200 biosensor at 25° C. in either HBS-EP (10 mM HEPES pH 7.4, 150 mM NaCl, 3 mM EDTA, and 0.005% (v/v) surfactant P20) or MES-EP (20 mM MES pH 6.5, 150 mM NaCl, 3 mM EDTA, and 0.005% (v/v) surfactant P20) at a flow-rate of 40 μL min⁻¹. […] This interaction was also analysed by immobilizing the Fc-domain 11^AB5 and Fc-domain 11^AB5-RHH (or Fc-domain 11^I1572A as control) by Human Antibody Capture (monoclonal mouse anti-human IgG antibody immobilised on a CM5 chip by amine coupling, GE Healthcare) with and without human IgG1 Fc fragment (Bethyl Laboratories, UK) in the control flow cell. […] Steady state affinities were determined using the kinetic data, taking the response average at 5 seconds before injection end and for 5 seconds average.

[6] = molecular target: T1, human IGF2^1-67 (mature insulin-like …); test: SPR steady state, biotin-IGF2 on chip, pH 7.4; remark: listed apart in the source
Summary of the method: as §3

[7] = molecular target: T1, human IGF2^1-67 (mature insulin-like …); test: SPR kinetic, biotin-IGF2 on chip, pH 6.5
Procedure: Measurements were carried out at 25° C. in MES-EP buffer, 20 mM MES pH 6.5, 150 mM NaCl, 3 mM EDTA, and 0.005% (v/v) surfactant P20). Data for KD expressed as mean of each experiment, and means of kon and koff are shown.
as §2, with “model. Steady state affinities were determined using the kinetic data, taking the response average at 5 seconds before injection end and for 5 seconds average. Thermodynamic data was performed across the temperature range of 10° C. to 30° C., van't Hoff and Erying plots generated and ΔH, −TΔS and ΔG values determined as previously described.” for “model.”

[8] = molecular target: T1, human IGF2^1-67 (mature insulin-like …); test: SPR (Biacore T200, 25 °C, HBS-EP pH 7.4); ΔΔG° = RT ln(KD mutant / KD domain 11^AB3); box AB+CD+FG+FG
Procedure: as §4, §5

[9] = molecular target: T1, human IGF2^1-67 (mature insulin-like …); test: SPR, pH 7.4; pH 7.4
Procedure: as §2, with “model. Steady state affinities were determined using the kinetic data, taking the response average at 5 seconds before injection end and for 5 seconds average. Thermodynamic data was performed across the temperature range of 10° C. to 30° C., van't Hoff and Erying plots generated and ΔH, −TΔS and ΔG values determined as previously described.” for “model.”

[10] = molecular target: T1, human IGF2^1-67 (mature insulin-like …); test: SPR, biotin-IGF2 on chip, lower pH (6.5); reference domain 11^WT
Procedure: as §2, with “model. Steady state affinities were determined using the kinetic data, taking the response average at 5 seconds before injection end and for 5 seconds average. Thermodynamic data was performed across the temperature range of 10° C. to 30° C., van't Hoff and Erying plots generated and ΔH, −TΔS and ΔG values determined as previously described.” for “model.”

T1 sequence (P01344 25-91): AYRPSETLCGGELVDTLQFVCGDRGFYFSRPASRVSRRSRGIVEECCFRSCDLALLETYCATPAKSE

B1: IGF2R domain 11^AB5 (receptor)
chain: MKSNEHDDCQVTNPSTGHLFDLSSLSGRAGFTAAYAKGWGVYMSICGENENCPPGVGACFGQTRISVGKANKRLRYVDQVLQLVYKDGSPCPSKSGLSYKSVISFVCRPEAGPTNRPMLISLDKQTCTLFFSWHTPLACEQATECSV
notes: His6-tagged soluble domain 11; also called 1542YAKGWG1547
Kd [1]: 6.44 nM
Kd [2]: 5.07 nM
koff [2]: 0.0208 s⁻¹
kon [2]: 4.21e+06 M⁻¹ s⁻¹
fold higher affinity than domain 11^WT [3]: 10 fold
Kd [4]: 5.07 nM
koff [4]: 0.0208 s⁻¹
kon [4]: 4.21e+06 M⁻¹ s⁻¹
ΔΔG [5]: -0.65 kcal/mol
Kd [6]: 6.44 nM
Kd [7]: 4.38 nM
koff [7]: 0.018 s⁻¹
kon [7]: 4.17e+06 M⁻¹ s⁻¹

B2: domain 11^AB3 Q1569R P1597H S1602H G1603K (receptor)
chain: MKSNEHDDCQVTNPSTGHLFDLSSLSGRAGFTAAYSKSGVVYMSICGENENCPPGVGACFGRTRISVGKANKRLRYVDQVLQLVYKDGSHCPSKHKLSYKSVISFVCRPEAGPTNRPMLISLDKQTCTLFFSWHTPLACEQATECSV
notes: See m5
ΔΔG [8]: -1.9 kcal/mol
Kd [4]: 0.62 nM
koff [4]: 0.0108 s⁻¹
kon [4]: 1.75e+07 M⁻¹ s⁻¹
Kd [6]: 1.31 nM
Kd [7]: 0.43 nM
koff [7]: 0.0087 s⁻¹
kon [7]: 2.43e+07 M⁻¹ s⁻¹
Kd [9]: 0.78 nM
fold improved overall affinity compared to domain 11^WT [10]: 100 fold
